Results from article PMC8980812.
Values belong to the binder of their own block, whether it stands above or below them.

How the values were obtained:
[1] = biological target: PleC-CcaS chimeric histidine kinase (chimera AB-1) (Caulobacter crescentus | not stated)
[2] = biological target: T1, PleC PAS AB-HK (Caulobacter crescentus)
T1 sequence (P37894 whole entry, looked up): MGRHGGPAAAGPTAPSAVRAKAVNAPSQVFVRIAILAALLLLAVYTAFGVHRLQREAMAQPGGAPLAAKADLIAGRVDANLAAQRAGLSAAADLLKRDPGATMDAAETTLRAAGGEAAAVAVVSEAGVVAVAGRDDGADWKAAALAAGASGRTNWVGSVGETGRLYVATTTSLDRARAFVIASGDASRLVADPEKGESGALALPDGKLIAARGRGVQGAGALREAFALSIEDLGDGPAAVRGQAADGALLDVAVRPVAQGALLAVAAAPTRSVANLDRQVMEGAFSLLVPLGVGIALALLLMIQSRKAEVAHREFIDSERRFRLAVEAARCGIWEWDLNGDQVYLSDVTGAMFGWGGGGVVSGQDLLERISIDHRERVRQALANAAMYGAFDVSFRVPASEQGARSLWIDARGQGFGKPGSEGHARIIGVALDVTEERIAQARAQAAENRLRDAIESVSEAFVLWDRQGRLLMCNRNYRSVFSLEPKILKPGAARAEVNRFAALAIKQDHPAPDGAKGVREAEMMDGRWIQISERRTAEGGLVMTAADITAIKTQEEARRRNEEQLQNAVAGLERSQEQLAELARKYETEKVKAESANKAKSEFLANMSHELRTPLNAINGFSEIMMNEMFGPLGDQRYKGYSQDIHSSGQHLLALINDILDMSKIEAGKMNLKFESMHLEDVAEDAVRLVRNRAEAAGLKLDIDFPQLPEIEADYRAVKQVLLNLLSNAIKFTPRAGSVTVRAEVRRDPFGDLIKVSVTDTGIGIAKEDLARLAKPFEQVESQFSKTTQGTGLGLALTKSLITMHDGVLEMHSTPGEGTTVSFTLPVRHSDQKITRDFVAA

[3] = biological target: PleC-CcaS chimeric histidine kinase (chimera AB-1) (Caulobacter crescentus | not stated); remark: listed apart in the source

mCherry expression from the cpcG2 promoter through PleC-CcaS and CcaR in E. coli, relative to the empty vector control [1]: 10 fold
B1: YFP-PodJ (full-length PodJL) (natural protein)
chain: MTAASPWSVKGIDPKAREVAKDLARRSGMTLGEWLNRMIIEGDGQTADPRLAGDDVPNRAYLEIVKDDAPPRIEIAEHPADEVGRVALALDRLTQRIEAAEGRNAAAITGIDHSVRDALTRLGASEREQIAVAARFEGAVDELKTEQARATERLRRIESEAAGPRSAEALRALEGALGKVAGHLYEGEARTREAIATLEAKLNQQSSGDPSALVEAVVARLGERLEAAETRTSDALRELGASFQALDQRLGAVETANPATGVQEGLDSLAATLTQKMEAARLEMAAKLRESADGRFDRMERKLGEMAAHVQAAEQRSAQAIERMGREIVGVADAFNRRVHAAESRNASAIEQVGGEVARIAASVEHKLNRADSVQAQALEKLGGEIARITEKLAERIGSAERRNALAIDDVGEQVARVTERLNQRHERSSQELVDRIRQSEERTLRMLEEAREKIDSRLSEAQRKLEAAPPSPPPAQAPAPVATAQRPVPPAASPFEDNYFSQAASFSTSEDEADAFDAPPAPARSFEVAEFPAAEPEEPAFAHDDYAIADGFEPESPRYEVEPEVSDFAPAEPSRPMSTRDIIEQARAAARAAAASEGKGGKAKSAKKEKASKASGSLFSGFGGFSTKKSKARLGATVTTALVVFAAAGALGAGVGGLLLLNTDDGNNSPSRVAQAIAGRKADVEVNGPEADTTPGAPRAAVALTTGKVVPAEVEAPAAPPTNEAKALFEDAVRKIESGDRSGVELLKRAANGGYPAAQFYLSKMYEGGKNGVKVDMAEARRWSERAANGGDPRAMHNLALYYFKGEGGPRNSTTAASWFRKAADMGLVDSQFNLAQLYESGLGVSQNPAEAYKWYVIAGRAGDSTARGRATALRSQLTAEAQQTADRSALAFRPQTQVQTASLSSAAPAAANANLGVAQRVLSQLGYYQGPRDGVSSPALRMAIAAYQRDQGLPPTGSVDAETLNRLSVYAR

ADP production IC50 (coupled enzyme assay of PleC PAS AB-HK) relative to that of PodJ(1–635) [2]: 2 fold
B2: PodJ(250–635) (domain or fragment)
chain: LGAVETANPATGVQEGLDSLAATLTQKMEAARLEMAAKLRESADGRFDRMERKLGEMAAHVQAAEQRSAQAIERMGREIVGVADAFNRRVHAAESRNASAIEQVGGEVARIAASVEHKLNRADSVQAQALEKLGGEIARITEKLAERIGSAERRNALAIDDVGEQVARVTERLNQRHERSSQELVDRIRQSEERTLRMLEEAREKIDSRLSEAQRKLEAAPPSPPPAQAPAPVATAQRPVPPAASPFEDNYFSQAASFSTSEDEADAFDAPPAPARSFEVAEFPAAEPEEPAFAHDDYAIADGFEPESPRYEVEPEVSDFAPAEPSRPMSTRDIIEQARAAARAAAASEGKGGKAKSAKKEKASKASGSLFSGFGGFSTKKSKARL

mCherry expression from the cpcG2 promoter through PleC-CcaS and CcaR in E. coli [3]: 3 fold
B3: PodJ(250–635) expressed in E. coli (domain or fragment)
chain: LGAVETANPATGVQEGLDSLAATLTQKMEAARLEMAAKLRESADGRFDRMERKLGEMAAHVQAAEQRSAQAIERMGREIVGVADAFNRRVHAAESRNASAIEQVGGEVARIAASVEHKLNRADSVQAQALEKLGGEIARITEKLAERIGSAERRNALAIDDVGEQVARVTERLNQRHERSSQELVDRIRQSEERTLRMLEEAREKIDSRLSEAQRKLEAAPPSPPPAQAPAPVATAQRPVPPAASPFEDNYFSQAASFSTSEDEADAFDAPPAPARSFEVAEFPAAEPEEPAFAHDDYAIADGFEPESPRYEVEPEVSDFAPAEPSRPMSTRDIIEQARAAARAAAASEGKGGKAKSAKKEKASKASGSLFSGFGGFSTKKSKARL
